Assay results: article PMC5510004, “Recruitment and positioning determine the specific role of the XPF‐ERCC1 endonuclease in interstrand crosslink repair”

What was measured:
[1] = target: T1, XPF wild type (xlXPF);ERCC1 wild type (hsERCC1) (Xenopus laevis;Homo sapiens?, UniProt A0A8J0PXV9;P07992 1-897;1-297, |); experiment: fluorescence anisotropy; 2 mM Ca2+; 25 mM Hepes pH 8.0, 15% glycerol, 0.1 mg/ml BSA, 2 mM CaCl2, 10 nM DNA, 1 h at room temperature; conditions: protein: recombinant;recombinant; tags: FLAG;His; copies: 1;1; label: 5'-FAM on F1; three strands 1:1:1
T1 sequence 1: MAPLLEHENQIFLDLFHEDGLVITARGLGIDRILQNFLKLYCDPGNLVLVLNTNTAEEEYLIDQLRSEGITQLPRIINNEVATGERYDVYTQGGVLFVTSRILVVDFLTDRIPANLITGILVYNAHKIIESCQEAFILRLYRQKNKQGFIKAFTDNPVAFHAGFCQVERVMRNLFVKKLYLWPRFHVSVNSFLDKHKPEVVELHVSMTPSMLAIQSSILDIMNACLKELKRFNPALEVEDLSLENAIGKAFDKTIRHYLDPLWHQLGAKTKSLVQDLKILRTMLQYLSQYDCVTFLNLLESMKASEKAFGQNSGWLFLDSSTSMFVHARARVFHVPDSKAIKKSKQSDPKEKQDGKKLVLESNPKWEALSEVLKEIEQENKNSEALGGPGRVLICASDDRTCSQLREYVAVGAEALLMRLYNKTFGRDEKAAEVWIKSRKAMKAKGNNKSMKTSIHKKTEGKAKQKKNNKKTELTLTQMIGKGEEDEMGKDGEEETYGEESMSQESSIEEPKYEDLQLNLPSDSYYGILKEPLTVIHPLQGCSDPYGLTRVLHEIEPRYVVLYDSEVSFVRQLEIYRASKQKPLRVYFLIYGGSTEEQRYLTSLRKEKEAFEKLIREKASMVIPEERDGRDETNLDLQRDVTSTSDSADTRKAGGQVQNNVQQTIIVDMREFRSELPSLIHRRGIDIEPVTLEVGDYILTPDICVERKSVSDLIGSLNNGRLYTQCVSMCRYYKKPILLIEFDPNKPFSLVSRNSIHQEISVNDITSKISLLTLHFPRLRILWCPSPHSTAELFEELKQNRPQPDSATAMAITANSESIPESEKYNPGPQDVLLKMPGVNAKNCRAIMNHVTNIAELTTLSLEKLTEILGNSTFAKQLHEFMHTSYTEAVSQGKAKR
T1 sequence 2: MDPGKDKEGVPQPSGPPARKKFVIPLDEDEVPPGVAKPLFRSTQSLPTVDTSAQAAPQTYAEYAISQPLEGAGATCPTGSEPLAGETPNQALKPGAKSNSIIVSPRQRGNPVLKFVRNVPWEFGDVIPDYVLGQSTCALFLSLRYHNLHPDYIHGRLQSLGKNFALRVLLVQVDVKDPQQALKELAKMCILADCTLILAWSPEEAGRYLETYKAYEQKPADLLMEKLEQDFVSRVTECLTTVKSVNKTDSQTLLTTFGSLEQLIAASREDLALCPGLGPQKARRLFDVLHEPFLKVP

[2] = target: T2, XPF L219R;ERCC1 wild type (hsERCC1) (Xenopus laevis;Homo sapiens?, UniProt A0A8J0PXV9;P07992 1-897;1-297, L219R|); experiment: fluorescence anisotropy; 2 mM Ca2+; comparable to wild type; 25 mM Hepes pH 8.0, 15% glycerol, 0.1 mg/ml BSA, 2 mM CaCl2, 10 nM DNA, 1 h at room temperature; conditions: protein: recombinant;recombinant; tags: FLAG;His; copies: 1;1; label: 5'-FAM on F1; three strands 1:1:1
T2 sequence 1: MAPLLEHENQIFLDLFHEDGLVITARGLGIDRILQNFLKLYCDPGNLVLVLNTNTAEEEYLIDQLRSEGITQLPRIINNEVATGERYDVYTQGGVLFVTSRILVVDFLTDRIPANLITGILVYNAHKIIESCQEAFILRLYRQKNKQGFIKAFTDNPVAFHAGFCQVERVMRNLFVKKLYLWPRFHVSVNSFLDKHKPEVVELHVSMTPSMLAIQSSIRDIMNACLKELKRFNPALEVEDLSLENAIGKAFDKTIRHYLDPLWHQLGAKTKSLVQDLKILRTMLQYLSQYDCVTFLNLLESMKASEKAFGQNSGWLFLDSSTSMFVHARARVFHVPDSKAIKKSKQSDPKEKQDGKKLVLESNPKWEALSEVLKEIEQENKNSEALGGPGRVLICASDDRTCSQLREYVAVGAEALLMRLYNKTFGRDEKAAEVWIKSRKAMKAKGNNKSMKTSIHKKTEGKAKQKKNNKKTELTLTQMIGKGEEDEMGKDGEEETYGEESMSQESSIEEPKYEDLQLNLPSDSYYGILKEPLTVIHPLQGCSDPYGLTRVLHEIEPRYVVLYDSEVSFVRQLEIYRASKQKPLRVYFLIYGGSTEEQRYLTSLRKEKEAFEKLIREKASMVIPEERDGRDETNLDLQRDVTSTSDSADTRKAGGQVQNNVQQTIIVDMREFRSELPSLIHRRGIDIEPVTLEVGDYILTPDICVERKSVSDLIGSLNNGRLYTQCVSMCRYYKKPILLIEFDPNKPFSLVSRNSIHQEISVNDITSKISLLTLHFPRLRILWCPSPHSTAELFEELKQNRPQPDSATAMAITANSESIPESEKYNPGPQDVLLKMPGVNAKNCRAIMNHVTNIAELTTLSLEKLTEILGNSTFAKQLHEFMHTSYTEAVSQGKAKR
T2 sequence 2: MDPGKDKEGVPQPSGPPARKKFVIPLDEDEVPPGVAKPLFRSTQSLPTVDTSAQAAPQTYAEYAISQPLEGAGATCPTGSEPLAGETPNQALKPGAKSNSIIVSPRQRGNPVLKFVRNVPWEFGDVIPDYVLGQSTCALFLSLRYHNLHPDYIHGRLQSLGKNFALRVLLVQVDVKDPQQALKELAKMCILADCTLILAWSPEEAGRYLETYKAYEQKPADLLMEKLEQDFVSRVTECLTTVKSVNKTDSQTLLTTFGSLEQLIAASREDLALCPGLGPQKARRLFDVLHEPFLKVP

B1: 3' flap DNA substrate (F1+F2+F3) (dsDNA)
DNA 1: CGCGATGCGGATCCAA
DNA 2: CCTAGACTTAAGAGGCCAGACTTGGATCCGCATCGC
DNA 3: GGCCTCTTAAGTCTAGG
**Q.** Does B1 bind [1]?
**A.** binds

**Q.** Does B1 bind [2]?
**A.** binds
